Measurements published in patent US20240042006A1 (KOREA UNIVERSITY RESEARCH AND BUSINESS FOUNDATION SEJONG …, published 2024).
Numbering of substitutions follows the chain as printed. In names and notes the source's numbering stands.

T1: PCNA3dm (Sulfolobus solfataricus)
T1 construct: also called third scaffold fragment 310; PCNA3 Y73F/S170V mutant subunit
T1 chain: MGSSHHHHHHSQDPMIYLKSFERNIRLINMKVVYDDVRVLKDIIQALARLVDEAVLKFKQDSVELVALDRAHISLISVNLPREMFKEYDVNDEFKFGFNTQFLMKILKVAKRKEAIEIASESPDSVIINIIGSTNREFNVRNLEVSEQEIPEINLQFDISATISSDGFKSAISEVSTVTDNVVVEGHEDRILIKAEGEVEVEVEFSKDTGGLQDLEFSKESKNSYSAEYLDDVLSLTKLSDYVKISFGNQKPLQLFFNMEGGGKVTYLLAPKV

T2: PCNA1 (Sulfolobus solfataricus, UniProt P57766 1-249)
T2 construct: also called PCNA1 wild-type subunit
T2 sequence (looked up): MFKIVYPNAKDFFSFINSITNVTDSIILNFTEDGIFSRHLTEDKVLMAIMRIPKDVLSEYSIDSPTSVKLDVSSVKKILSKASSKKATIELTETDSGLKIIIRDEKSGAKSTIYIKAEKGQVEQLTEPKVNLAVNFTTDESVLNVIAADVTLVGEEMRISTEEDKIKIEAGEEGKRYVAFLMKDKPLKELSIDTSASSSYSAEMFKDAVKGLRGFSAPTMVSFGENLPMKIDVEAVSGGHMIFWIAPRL

B1: PCNA3 (other, Sulfolobus solfataricus, UniProt P57765 1-244, looked up)
chain: MKVVYDDVRVLKDIIQALARLVDEAVLKFKQDSVELVALDRAHISLISVNLPREMFKEYDVNDEFKFGFNTQYLMKILKVAKRKEAIEIASESPDSVIINIIGSTNREFNVRNLEVSEQEIPEINLQFDISATISSDGFKSAISEVSTVTDNVVVEGHEDRILIKAEGESEVEVEFSKDTGGLQDLEFSKESKNSYSAEYLDDVLSLTKLSDYVKISFGNQKPLQLFFNMEGGGKVTYLLAPKV
notes: also called PCNA3 wild-type subunit
B2: PCNA1dm (other)
chain: T2 sequence (looked up) with T112K, Y114K
notes: also called first scaffold fragment 110; PCNA1 T112K/Y114K mutant subunit
B3: PCNA2dm (other)
chain: MGSSHHHHHHSSGLVPRGSHMMKAKVIDAVSFSYILRTVGDFLSEANFIVTKEGIRVSGIDPSRVVFLDIFLPSSYFEGFEVSQEKEIIGFKLEDVNDILKRVLKDDTLILSSNESKLTLTFDGEFTRSFELPLIQVESTQPPSVNLEFPFKAQLLTITFADIIDELSDLGEVLNIHSKENKLYFEVIGDLVTVKVELSTDNGTLLEASGADVSSSYGMEYVANTTKMRRASDSMELYFGSQIPLKLRFKLPQEGYGDFYIAPRAD
notes: also called second scaffold fragment 210; PCNA2 S172V/A174V mutant subunit
B4: PCNA2 (other, Sulfolobus solfataricus, UniProt Q97Z84 1-245, looked up)
chain: MKAKVIDAVSFSYILRTVGDFLSEANFIVTKEGIRVSGIDPSRVVFLDIFLPSSYFEGFEVSQEKEIIGFKLEDVNDILKRVLKDDTLILSSNESKLTLTFDGEFTRSFELPLIQVESTQPPSVNLEFPFKAQLLTITFADIIDELSDLGEVLNIHSKENKLYFEVIGDLSTAKVELSTDNGTLLEASGADVSSSYGMEYVANTTKMRRASDSMELYFGSQIPLKLRFKLPQEGYGDFYIAPRAD
notes: also called PCNA2 wild-type subunit

Tests used:
Assay in all cases: BLI (BLItz, ForteBio); the partner on the sensor is not stated
PCNA2 = molecular target: B4
PCNA2dm = molecular target: B3
PCNA3dm = molecular target: T1, PCNA3dm
PCNA1 = molecular target: T2, PCNA1

B1
Kd (PCNA2): 3.17 µM

B2
Kd (PCNA2dm): 2.65 nM

B3
Kd (PCNA3dm): 571 nM

B4
Kd (PCNA1): 6.31 nM
